Data from the supplement of paper PMC9428881.
± gives the standard error.

Experiment: background-corrected fluorescence of 3'-dye-labeled ssDNA relative to brightest sequence (3'-GCGCG) (fraction); higher = brighter dye fluorescence (less quenching)
Method in brief: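 Each of 1024 permuted pentamers was synthesized as single-stranded DNA on glass slides by light-directed phosphoramidite chemistry, with a 3' Cy3 or Cy5 dye alongside. Arrays were scanned at 532 or 635 nm before and after overnight deprotection with ethylenediamine/ethanol. Values average 10 features per array across at least 3 syntheses. The fluorescence readout, with unlabeled-oligo background removed, is given relative to the brightest sequence.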

Sequence | background-corrected fluorescence (dye: Cy3 (3' terminal)) | background-corrected fluorescence (dye: Cy5 (3' terminal))
TTTTTTGCTCATGATCATGATTTTTTTTTTTTTTTAGCGC [CGCGA] | 0.65 ± 0.023 | 0.523 ± 0.038
TTTTTTCAGCATCATGATGCTTTTTTTTTTTTTTTGTGCA [ACGTG] | 0.589 ± 0.02 | 0.483 ± 0.028
TTTTTGCATGATGCTGCGCATTTTTTTTTTTTTTTTCAAT [TAACT] | 0.554 ± 0.027 | 0.386 ± 0.019
TTTTTTGATGCTGCTGATGATTTTTTTTTTTTTTTCAACC [CCAAC] | 0.377 ± 0.027 | 0.265 ± 0.023
TTTTTTCATCAGCAGCATCATTTTTTTTTTTTTTTGGTTG [GTTGG] | 0.524 ± 0.02 | 0.392 ± 0.022
TTTTTTGATGCGCATCATGATTTTTTTTTTTTTTTCATGC [CGTAC] | 0.536 ± 0.028 | 0.395 ± 0.026
TTTTTTGCTGCTGATCATCATTTTTTTTTTTTTTTAACGG [GGCAA] | 0.652 ± 0.019 | 0.552 ± 0.04
TTTTTGCATCATCATCATGATTTTTTTTTTTTTTTTGGGC [CGGGT] | 0.591 ± 0.026 | 0.516 ± 0.027
TTTTTTGCTGATCATGATGATTTTTTTTTTTTTTTACGCC [CCGCA] | 0.467 ± 0.021 | 0.393 ± 0.027
TTTTTGCATGAGCAGCAGCATTTTTTTTTTTTTTTTCTTT | 0.504 ± 0.016 | 0.353 ± 0.032
TTTTTTGCTGCTCATGATGCTTTTTTTTTTTTTTTAAGCA [ACGAA] | 0.571 ± 0.014 | 0.451 ± 0.026
TTTTTTGAGCATGCTCATGCTTTTTTTTTTTTTTTCTAGA [AGATC] | 0.608 ± 0.035 | 0.529 ± 0.026
TTTTTTGAGCATGATGATGCTTTTTTTTTTTTTTTCTCCA [ACCTC] | 0.441 ± 0.019 | 0.356 ± 0.055
TTTTTTCATCATCATCATGATTTTTTTTTTTTTTTGGGGC [CGGGG] | 0.631 ± 0.03 | 0.532 ± 0.033
TTTTTTGAGCATCAGCATGCTTTTTTTTTTTTTTTCTGTA [ATGTC] | 0.571 ± 0.019 | 0.429 ± 0.072
TTTTTGCAGCAGCATCAGCATTTTTTTTTTTTTTTTTTGT [TGTTT] | 0.649 ± 0.02 | 0.46 ± 0.028
TTTTTTGCTGATGCTGCGCATTTTTTTTTTTTTTTACAAT [TAACA] | 0.525 ± 0.028 | 0.396 ± 0.021

Sequence | background-corrected fluorescence (dye: Cy3 (3' terminal)) | background-corrected fluorescence (dye: Cy5 (3' terminal))
TTTTTTGCTGATGCTCATGCTTTTTTTTTTTTTTTACAGA [AGACA] | 0.615 ± 0.02 | 0.459 ± 0.036
TTTTTGCATGCTGAGCAGCATTTTTTTTTTTTTTTTACTT [TTCAT] | 0.504 ± 0.046 | 0.358 ± 0.039
TTTTTTGCTCATGATCATCATTTTTTTTTTTTTTTAGCGG [GGCGA] | 0.716 ± 0.013 | 0.577 ± 0.042
TTTTTTCATCATCATGCTCATTTTTTTTTTTTTTTGGGAG [GAGGG] | 0.614 ± 0.037 | 0.478 ± 0.026
TTTTTTCATGATCATGATGATTTTTTTTTTTTTTTGCGCC [CCGCG] | 0.505 ± 0.024 | 0.4 ± 0.041
TTTTTGCAGCAGCAGCATCATTTTTTTTTTTTTTTTTTTG [GTTTT] | 0.461 ± 0.0051 | 0.334 ± 0.032
TTTTTGCATGCTCATGATGCTTTTTTTTTTTTTTTTAGCA [ACGAT] | 0.52 ± 0.038 | 0.447 ± 0.024
TTTTTTGCTGATCATGATCATTTTTTTTTTTTTTTACGCG [GCGCA] | 0.973 ± 0.017 | 0.876 ± 0.027
TTTTTGCATCATGATGCTGCTTTTTTTTTTTTTTTTGCAA [AACGT] | 0.594 ± 0.0062 | 0.463 ± 0.026
TTTTTTGAGCAGCAGCATGATTTTTTTTTTTTTTTCTTTC | 0.389 ± 0.014 | 0.297 ± 0.05
TTTTTTGATGAGCATGCGCATTTTTTTTTTTTTTTCCTAT [TATCC] | 0.486 ± 0.018 | 0.361 ± 0.028
TTTTTTGCTGAGCATGATGATTTTTTTTTTTTTTTACTCC [CCTCA] | 0.378 ± 0.023 | 0.3 ± 0.044
TTTTTGCATGATGAGCATGCTTTTTTTTTTTTTTTTCCTA [ATCCT] | 0.455 ± 0.019 | 0.355 ± 0.019
TTTTTTCATGCTGCTCAGCATTTTTTTTTTTTTTTGAAGT | 0.661 ± 0.012 | 0.529 ± 0.056
TTTTTGCATGCTGCTGCTGATTTTTTTTTTTTTTTTAAAC [CAAAT] | 0.447 ± 0.028 | 0.336 ± 0.028
TTTTTTGATGAGCAGCATCATTTTTTTTTTTTTTTCCTTG [GTTCC] | 0.547 ± 0.021 | 0.378 ± 0.025
TTTTTTCATGCTGCTGATGATTTTTTTTTTTTTTTGAACC [CCAAG] | 0.41 ± 0.033 | 0.288 ± 0.027
